In patent publication US20220048967A1 (published 2022):
Numbered stars: 1 amine (or outer) side, 2 acyl side, 3 side chain; on linkers, the order of the positions; unused ones are H or OH. Square brackets hold non-standard residues; d marks the D form. Side chains are listed from the residue outwards. Ends that are not written are not given here. * marks the point of attachment. C20 diacid = O=C(O)CCCCCCCCCCCCCCCCCCC(=O)*; αMePhe(2-F) = C[C@](N)(Cc1ccccc1F)C(=O)O; γGlu = O=C(O)[C@H](CCC(=O)[*:2])N[*:1]; Desaminotyrosyl = O=C(CCc1ccc(O)cc1)*; αMeF = C[C@](N)(Cc1ccccc1)C(=O)O; cTA = not defined here; AEEA = NCCOCCOCC(=O)O; Aib = CC(C)(N)C(=O)O

T1: human gastric inhibitory peptide receptor (GIPR) (human, UniProt P48546 22-466)
T1 sequence (looked up): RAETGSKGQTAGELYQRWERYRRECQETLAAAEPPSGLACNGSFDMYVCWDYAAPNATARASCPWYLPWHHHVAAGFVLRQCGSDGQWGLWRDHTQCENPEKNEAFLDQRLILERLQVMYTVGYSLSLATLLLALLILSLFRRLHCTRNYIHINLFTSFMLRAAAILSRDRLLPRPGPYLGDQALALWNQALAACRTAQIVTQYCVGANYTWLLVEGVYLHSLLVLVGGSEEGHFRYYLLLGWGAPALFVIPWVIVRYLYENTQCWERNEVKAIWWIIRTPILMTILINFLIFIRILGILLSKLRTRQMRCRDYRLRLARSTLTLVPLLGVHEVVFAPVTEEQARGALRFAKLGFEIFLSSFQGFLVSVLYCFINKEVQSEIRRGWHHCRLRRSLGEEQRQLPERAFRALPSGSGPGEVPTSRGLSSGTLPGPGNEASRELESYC


How the values were obtained:
Experiment in all cases: cell-based or functional assay
[1] = target: T1, human gastric inhibitory peptide …
[2] = target: human GLP-1 receptor (GLP-1R) (human, UniProt P43220 24-463)
human GLP-1 receptor = human GLP-1 receptor (human, UniProt P43220 24-463)

Binder	hGIPR cAMP Rel EC50 [1] [nM]	hGIPR cAMP EC50 ratio [1]	hGLP1R cAMP EC50 ratio [2]	hGLP1R cAMP Rel EC50 [2] [nM]	hGLP1R GTPgS % Top (human GLP-1 receptor) [%]	hGLP1R GTPgS Rel EC50 (human GLP-1 receptor) [nM]
Y[Aib]EGT[αMeF]TSDYSIXLDKK([AEEA-AEEA-γGlu-C20 diacid])AQ[Aib]SFIEYLIEGGPSSGAPPPS-NH2 (not fully specified (residue 13); printed as Y-Aib-EGT-αMeF-TSDYSI-αMeF-LDKK((2-[2-(2-Amino-ethoxy)-ethoxy]-acetyl)2-(γ-Glu)-CO-(CH2)18-CO2H)AQ-Aib-SFIEYLIEGGPSSGAPPPS-NH2) [Example 138]	0.0581					
Y[Aib][cTA]GT[αMeF]TSDYSIXLDEK([AEEA-AEEA-γGlu-C20 diacid])AQ[Aib]AFIEYLIEGGPSSGAPPPS-NH2 (not fully specified (residue 13); printed as Y-Aib-cTA-GT-αMeF-TSDYSI-αMeF-LDEK((2-[2-(2-Amino-ethoxy)-ethoxy]-acetyl)2-(γ-Glu)-CO-(CH2)18-CO2H)AQ-Aib-AFIEYLIEGGPSSGAPPPS-NH2) [Example 120]	0.122	1.67	0.319	0.201		
[Desaminotyrosyl][Aib]EGT[αMePhe(2-F)]TSDYSIXLDEK([AEEA-AEEA-γGlu-C20 diacid])AQ[Aib]EFIEYLIEGGPSSGAPPPS-NH2 (not fully specified (residue 13); printed as DesTyr-Aib-EGT-αMeF(2F)-TSDYSI-αMeF-LDEK((2-[2-(2-Amino-ethoxy)-ethoxy]-acetyl)2-(γ-Glu)-CO-(CH2)18-CO2H)AQ-Aib-EFIEYLIEGGPSSGAPPPS-NH2) [Example 134]	0.104	1.43	0.942	0.0654		
Y[Aib]EGT[αMeF]TSDYSIXLDEK([AEEA-AEEA-γGlu-C20 diacid])AQ[Aib]EFIEYLIEGGPSSG-NH2 (not fully specified (residue 13); printed as Y-Aib-EGT-αMeF-TSDYSI-αMeF-LDEK((2-[2-(2-Amino-ethoxy)-ethoxy]-acetyl)2-(γ-Glu)-CO-(CH2)18-CO2H)AQ-Aib-EFIEYLIEGGPSSG-NH2) [Example 124]	0.0762	2.18	1.29	0.0475		
YXEGTXTSDXSIXLDEKAQXEFIXYLIEGGPSSGAPPPS (Y-Aib-EGT-αMeF(2F)-TSD-αMeY-SI-αMeF-LDEK((2-[2-(2-Amino-ethoxy)-ethoxy]-acetyl)2-(γ-Glu)-CO-(CH2)18-CO2H)AQ-Aib-EFI-(D-Glu)-YLIEGGPSSGAPPPS-NH2) [Example 186]			0.572	0.0939		
YXEGTXTSDYSIXLDEKAQXEFIXYLIEGGPSSGAPPPS (Y-Aib-EGT-αMeF-TSDYSI-Aib-LDEK((2-[2-(2-Amino-ethoxy)-ethoxy]-acetyl)2-(γ-Glu)-CO-(CH2)18-CO2H)AQ-Aib-EFI-(D-Glu)-YLIEGGPSSGAPPPS-NH2) [Example 225]	0.101					
Y[Aib]EGT[αMeF]TSDYSIXLDKK([AEEA-AEEA-γGlu-C20 diacid])AQ[Aib]EFIEYLIEGGPSSG-NH2 (not fully specified (residue 13); printed as Y-Aib-EGT-αMeF-TSDYSI-αMeF-LDKK((2-[2-(2-Amino-ethoxy)-ethoxy]-acetyl)2-(γ-Glu)-CO-(CH2)18-CO2H)AQ-Aib-EFIEYLIEGGPSSG-NH2) [Example 123]	0.0423	4.04	1.58	0.0344		
H[Aib]NGTFTSDYSILLDKK([AEEA-AEEA-γGlu-C20 diacid])AQ[Aib]AFIEYLIEGGPSSGAPPPS-NH2 (N-terminus assumed; SMILES CC[C@H](C)[C@H](NC(=O)[C@H](CC(C)C)NC(=O)[C@H](Cc1ccc(O)cc1)NC(=O)[C@H](CCC(=O)O)NC(=O)[C@@H](NC(=O)[C@H](Cc1ccccc1)NC(=O)[C@H](C)NC(=O)C(C)(C)NC(=O)[C@H](CCC(N)=O)NC(=O)[C@H](C)NC(=O)[C@H](CCCCNC(=O)COCCOCCNC(=O)COCCOCCNC(=O)CC[C@H](NC(=O)CCCCCCCCCCCCCCCCCCC(=O)O)C(=O)O)NC(=O)[C@H](CCCCN)NC(=O)[C@H](CC(=O)O)NC(=O)[C@H](CC(C)C)NC(=O)[C@H](CC(C)C)NC(=O)[C@@H](NC(=O)[C@H](CO)NC(=O)[C@H](Cc1ccc(O)cc1)NC(=O)[C@H](CC(=O)O)NC(=O)[C@H](CO)NC(=O)[C@@H](NC(=O)[C@H](Cc1ccccc1)NC(=O)[C@@H](NC(=O)CNC(=O)[C@H](CC(N)=O)NC(=O)C(C)(C)NC(=O)[C@@H](N)Cc1c[nH]cn1)[C@@H](C)O)[C@@H](C)O)[C@@H](C)CC)[C@@H](C)CC)C(=O)N[C@@H](CCC(=O)O)C(=O)NCC(=O)NCC(=O)N1CCC[C@H]1C(=O)N[C@@H](CO)C(=O)N[C@@H](CO)C(=O)NCC(=O)N[C@@H](C)C(=O)N1CCC[C@H]1C(=O)N1CCC[C@H]1C(=O)N1CCC[C@H]1C(=O)N[C@@H](CO)C(N)=O) [Example 135]	0.373	0.482	0.509	0.131		
FXEGTFTSDYSIXLDKKAQXAFIEYLIEAGPSSGAPPPS (Aib2, αMeL13, K17 conjugated to (2-[2-(2-Amino-ethoxy)-ethoxy]-acetyl)2-(γ-Glu)-CO-(CH2)16-CO2H, Aib20, C-terminal amide (NH2)) [Example 328]					66.3	0.481
Y[Aib]EGT[αMeF]TSDYSIXLDKK([AEEA-AEEA-γGlu-C20 diacid])AQ[Aib]AFIEYLIEAGPSSGAPPPS-NH2 (not fully specified (residue 13); printed as Y-Aib-EGT-αMeF-TSDYSI-αMeF-LDKK((2-[2-(2-Amino-ethoxy)-ethoxy]-acetyl)2-(γ-Glu)-CO-(CH2)18-CO2H)AQ-Aib-AFIEYLIEAGPSSGAPPPS-NH2) [Example 126]	0.0685	2.53	0.869	0.0715		
YXEGTXTSDISILLDKKAQXAFIEYLIEGGPSSGAPPPS (Y-Aib-EGT-αMeF-TSDISILLDKK((2-[2-(2-Amino-ethoxy)-ethoxy]-acetyl)2-(γ-Glu)-CO-(CH2)18-CO2H)AQ-Aib-AFIEYLIEGGPSSGAPPPS-NH2) [Example 127]	0.158	0.917	0.443	0.145		
YXEGTXTSDXSILLDKKAQXAFIEYLIEGGPSSGAPPPS (Y-Aib-EGT-αMeF-TSD-3Pal-SILLDKK((2-[2-(2-Amino-ethoxy)-ethoxy]-acetyl)2-(γ-Glu)-CO-(CH2)18-CO2H)AQ-Aib-AFIEYLIEGGPSSGAPPPS-NH2) [Example 132]	0.0657	2.88	0.255	0.26		
YXEGTXTSDHSILLDKKAQXAFIEYLIEGGPSSGAPPPS (Y-Aib-EGT-αMeF-TSDHSILLDKK((2-[2-(2-Amino-ethoxy)-ethoxy]-acetyl)2-(γ-Glu)-CO-(CH2)18-CO2H)AQ-Aib-AFIEYLIEGGPSSGAPPPS-NH2) [Example 128]	0.0694	2.46	0.7	0.0924		
YXEGTXTSDYSILLDEKAQXEFIXYLIEGGPSSGAPPPS (Y-Aib-EGT-αMeF(2F)-TSDYSILLDEK((2-[2-(2-Amino-ethoxy)-ethoxy]-acetyl)2-(γ-Glu)-CO-(CH2)18-CO2H)AQ-Aib-EFI-(D-Glu)-YLIEGGPSSGAPPPS-NH2) [Example 226]	0.0461					
YXEGTXTSDESILLDKKAQXAFIEYLIEGGPSSGAPPPS (Y-Aib-EGT-αMeF-TSDESILLDKK((2-[2-(2-Amino-ethoxy)-ethoxy]-acetyl)2-(γ-Glu)-CO-(CH2)18-CO2H)AQ-Aib-AFIEYLIEGGPSSGAPPPS-NH2) [Example 130]	1.55	0.116	0.182	0.368		
YXEGTXTSDXSILLDKKAQXAFIEYLIEGGPSSGAPPPS (Y-Aib-EGT-αMeF-TSD-αMeF-SILLDKK((2-[2-(2-Amino-ethoxy)-ethoxy]-acetyl)2-(γ-Glu)-CO-(CH2)18-CO2H)AQ-Aib-AFIEYLIEGGPSSGAPPPS-NH2) [Example 131]	0.183	1.03	0.425	0.156		
YXEGTXTSDLSILLDKKAQXAFIEYLIEGGPSSGAPPPS (Y-Aib-EGT-αMeF-TSDLSILLDKK((2-[2-(2-Amino-ethoxy)-ethoxy]-acetyl)2-(γ-Glu)-CO-(CH2)18-CO2H)AQ-Aib-AFIEYLIEGGPSSGAPPPS-NH2) [Example 129]	0.106	1.88	0.543	0.121		
[Desaminotyrosyl][Aib]EGT[αMeF]TSDYSI[Aib]LDEK([AEEA-AEEA-γGlu-C20 diacid])AQ[Aib]AFIEYLIEGGPSSGAPPPS-NH2 (SMILES CC[C@H](C)[C@H](NC(=O)[C@H](CC(C)C)NC(=O)[C@H](Cc1ccc(O)cc1)NC(=O)[C@H](CCC(=O)O)NC(=O)[C@@H](NC(=O)[C@H](Cc1ccccc1)NC(=O)[C@H](C)NC(=O)C(C)(C)NC(=O)[C@H](CCC(N)=O)NC(=O)[C@H](C)NC(=O)[C@H](CCCCNC(=O)COCCOCCNC(=O)COCCOCCNC(=O)CC[C@H](NC(=O)CCCCCCCCCCCCCCCCCCC(=O)O)C(=O)O)NC(=O)[C@H](CCC(=O)O)NC(=O)[C@H](CC(=O)O)NC(=O)[C@H](CC(C)C)NC(=O)C(C)(C)NC(=O)[C@@H](NC(=O)[C@H](CO)NC(=O)[C@H](Cc1ccc(O)cc1)NC(=O)[C@H](CC(=O)O)NC(=O)[C@H](CO)NC(=O)[C@@H](NC(=O)[C@](C)(Cc1ccccc1)NC(=O)[C@@H](NC(=O)CNC(=O)[C@H](CCC(=O)O)NC(=O)C(C)(C)NC(=O)CCc1ccc(O)cc1)[C@@H](C)O)[C@@H](C)O)[C@@H](C)CC)[C@@H](C)CC)C(=O)N[C@@H](CCC(=O)O)C(=O)NCC(=O)NCC(=O)N1CCC[C@H]1C(=O)N[C@@H](CO)C(=O)N[C@@H](CO)C(=O)NCC(=O)N[C@@H](C)C(=O)N1CCC[C@H]1C(=O)N1CCC[C@H]1C(=O)N1CCC[C@H]1C(=O)N[C@@H](CO)C(N)=O) [Example 133]	0.0879	1.89	1.52	0.0436		
